# Experimental data published in patent US20220348647A1 (published 2022).
# Changes are numbered by the printed parent chain. In names and notes the source's numbering stands.
# T1: cyno CCL17 (Macaca fascicularis (cyno), UniProt Q8HYP9 24-94 (rhesus entry))
# T1 construct: Biotinylated in the Fab ELISAs; also called cCCL17; cCCL-17
# T1 sequence: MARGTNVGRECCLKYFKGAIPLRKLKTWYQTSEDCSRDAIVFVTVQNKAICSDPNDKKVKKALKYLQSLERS
# T2: human CCL17 (human, UniProt Q92583 24-94)
# T2 construct: Biotinylated in the Fab ELISAs; also called huCCL17; Bt-huCCL17
# T2 sequence: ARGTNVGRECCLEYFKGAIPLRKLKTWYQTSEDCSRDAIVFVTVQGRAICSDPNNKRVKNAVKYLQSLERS
# B1: C17B257 (antibody, IgG1, V domains shown)
# VH: EVQLVQSGAEVKKPGESLKISCKGSGYSFTSYWIGWVRQMPGKGLEWMGIIDPSDSDTRYSPSFQGQVTISADKSISTAYLQWSSLKASDTAMYYCARVGPADVWDSFDYWGQGTLVTVSS
# VL: DIVMTQSPDSLAVSLGERATINCKSSQSVLLSFDNINKLAWYQQKPGQPPKLLIYAASTRESGVPDRFSGSGSGTDFTLTISSLQAEDVAVYYCQQFYSVPSTFGQGTKVEIK
# notes: Expressed as IgG1; Light chain N50A (Kabat) variant of C17B234
# B2: C17B262 (antibody, IgG1, V domains shown)
# VH: B1 VH
# VL: B1 VL with A56S
# notes: Expressed as IgG1; Light chain N50S (Kabat) variant of C17B234
# B3: C17B263 (antibody, IgG1, V domains shown)
# VH: B1 VH
# VL: B1 VL with A56T
# notes: Expressed as IgG1; Light chain N50T (Kabat) variant of C17B234
# B4: C17B264 (antibody, IgG1, V domains shown)
# VH: B1 VH
# VL: B1 VL with A56I
# notes: Expressed as IgG1; Light chain N50I (Kabat) variant of C17B234
# B5: C17B258 (antibody, IgG1, V domains shown)
# VH: B1 VH
# VL: B1 VL with A56D
# notes: Expressed as IgG1; Light chain N50D (Kabat) variant of C17B234
# B6: C17B294 (antibody, IgG1, V domains shown)
# VH: B1 VH with S107T
# VL: B1 VL with A56D
# notes: Expressed as IgG1; Heavy chain S100cT (Kabat) paired with the light chain of C17B258
# B7: C17B260 (antibody, IgG1, V domains shown)
# VH: B1 VH
# VL: B1 VL with A56G
# notes: Expressed as IgG1; Light chain N50G (Kabat) variant of C17B234
# B8: C17B295 (antibody, IgG1, V domains shown)
# VH: B1 VH with D106E
# VL: B1 VL with A56D
# notes: Expressed as IgG1; Heavy chain D100bE (Kabat) paired with the light chain of C17B258
# B9: C17B293 (antibody, IgG1, V domains shown)
# VH: B1 VH with S107A
# VL: B1 VL with A56D
# notes: Expressed as IgG1; Heavy chain S100cA (Kabat) paired with the light chain of C17B258; also called C17M293
# B10: C17B234 (antibody, V domains shown)
# VH: B1 VH
# VL: B1 VL with A56N
# notes: Full IgG1, kappa
# B11: C17B244 (antibody, V domains shown)
# VH: B1 VH
# VL: B1 VL with L31S, F33I, D34T, I36V, K38D, A56T, F97Y, S99H, V100D, S102F
# notes: Full IgG1, kappa
# B12: C17B243 (antibody, V domains shown)
# VH: B1 VH
# VL: B1 VL with L31N, I36K, K38D, A56E, F97H, Y98W, S99Q, V100T, S102L
# notes: Full IgG1, kappa
# B13: C17B241 (antibody, V domains shown)
# VH: B1 VH
# VL: B1 VL with L31N, D34T, I36N, K38A, A56E, F97T, Y98N, V100I, S102L
# notes: Full IgG1, kappa
# B14: C17B237 (antibody, V domains shown)
# VH: B1 VH
# VL: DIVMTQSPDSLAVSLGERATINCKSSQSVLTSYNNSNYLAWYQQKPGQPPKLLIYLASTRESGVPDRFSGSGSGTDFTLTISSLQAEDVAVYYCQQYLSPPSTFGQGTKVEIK
# notes: Full IgG1, kappa
# B15: C17B240 (antibody, V domains shown)
# VH: B1 VH
# VL: B1 VL with L31Y, F33H, D34V, I36Y, K38A, A56N, F97Y, S99T, V100L, S102A
# notes: Full IgG1, kappa
# B16: C17B242 (antibody, V domains shown)
# VH: B1 VH
# VL: B1 VL with L31F, F33H, I36L, K38T, A56H, F97Y, S99A, S102Q
# notes: Full IgG1, kappa
# B17: C17B235 (antibody, V domains shown)
# VH: B1 VH
# VL: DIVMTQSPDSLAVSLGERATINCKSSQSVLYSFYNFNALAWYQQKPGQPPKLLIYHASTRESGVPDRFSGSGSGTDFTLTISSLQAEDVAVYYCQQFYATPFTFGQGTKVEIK
# notes: Full IgG1, kappa
# B18: C17B239 (antibody, V domains shown)
# VH: B1 VH
# VL: B1 VL with L31S, D34T, I36T, K38T, A56H, F97Y, Y98L, S99I, V100Y
# notes: Full IgG1, kappa
# B19: C17B238 (antibody, V domains shown)
# VH: B1 VH
# VL: DIVMTQSPDSLAVSLGERATINCKSSQSVLISAFNQNPLAWYQQKPGQPPKLLIYDASTRESGVPDRFSGSGSGTDFTLTISSLQAEDVAVYYCQQYQFIPFTFGQGTKVEIK
# notes: Full IgG1, kappa
# B20: C17B236 (antibody, V domains shown)
# VH: B1 VH
# VL: B1 VL with F33P, D34W, I36S, K38Q, A56G, F97Y, S99L, V100I
# notes: Full IgG1, kappa
# B21: C17B302 (antibody, human IgG2, kappa, V domains shown)
# VH: B1 VH with S107A
# VL: DIVMTQSPDSLAVSLGERATINCKSSQSVLLSFDNINKLAWYQQKPGQPPKLLIYDASTRESGVPDRFSGSGSGTDFTLTISSLQAEDVAVYYCQQFYSVPSTFGQGTKVEIKR
# B22: C17B311 (antibody, V domains shown)
# VH: B1 VH with S107A
# VL: B1 VL with A56D
# B23: C17F24 (parent) (antibody, V domains shown)
# VH: B1 VH
# VL: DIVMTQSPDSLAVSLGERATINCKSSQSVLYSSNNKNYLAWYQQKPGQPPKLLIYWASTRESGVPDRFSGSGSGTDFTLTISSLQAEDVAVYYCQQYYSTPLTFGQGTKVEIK
# Target: T1, cyno CCL17
# Test: solution equilibrium affinity (MSD-SEA), IgG1
# Procedure: (§1) Equal volumes of the anti-hCCL17 mAbs at 40 pM or 200 pM were added to each chemokine dilution to obtain mixtures containing the serial dilution of chemokines starting at a final concentration of […] and a constant concentration (20 pM or 100 pM) of anti-CCL17 antibody. The mixtures were prepared in duplicate and incubated at 4° C. for 48 hours to reach equilibrium. The free antibody was detected using a SECTOR Imager 6000 (Meso Scale Discovery) instrument. The resulting binding curves were fitted to obtain the dissociation equilibrium constant (KD) using the GraphPad Prism software (v 5.01) using a 1:1 binding model to perform nonlinear least-square regression analysis of the data.
row,Kd,Binder
1,0.0656 nM,B1
2,0.0555 nM,B2
3,0.0756 nM,B3
4,0.0718 nM,B4
5,0.0416 nM,B5
6,0.022 nM,B6
7,0.0364 nM,B7
8,29.9 nM,B8
9,0.039 nM,B9

# Target: T2, human CCL17
# Test: solution equilibrium affinity (MSD-SEA), IgG1
# Procedure: as §1
row,Kd,Binder
1,0.0001 nM,B1
2,0.0003 nM,B2
3,0.0001 nM,B3
4,0.0004 nM,B4
5,0.0001 nM,B5
6,0.001 nM,B6
7,0.0005 nM,B7
8,0.175 nM,B8
9,< 0.0001 nM,B9

# Target: T2, human CCL17
# Test: MSD-SEA; affinity for human CCL17 against that for cyno CCL17
# Procedure: as §1
row,Fold binding human/cyno CCL17,Binder
1,656 fold,B1
2,185 fold,B2
3,115 fold,B10
4,17.1 fold,B11
5,24.2 fold,B12
6,756 fold,B3
7,11.7 fold,B13
8,4.7 fold,B14
9,55.4 fold,B15
10,2.3 fold,B16
11,132 fold,B17
12,6.8 fold,B18
13,180 fold,B4
14,416 fold,B5
15,22 fold,B6
16,72.8 fold,B7
17,12.7 fold,B19
18,171 fold,B8
19,7.6 fold,B20

# Target: T2, human CCL17
# Test: not stated in the legend (affinities by MSD-SEA in Examples 3 and 4)
row,Kd,Binder
1,≤ 100 nM,B10
2,≤ 100 nM,B11
3,≤ 100 nM,B12
4,≤ 100 nM,B13
5,≤ 100 nM,B15
6,≤ 100 nM,B17
7,≤ 100 nM,B18
8,≤ 100 nM,B6
9,≤ 100 nM,B20
10,≤ 100 nM,B9

# Target: T1, cyno CCL17
# Test: cell-based or functional assay
row,"IC50 (nM), calcium flux assay in CCRF-CEM cells, 5 ng/ml cyno CCL17",Binder
1,0.238 nM,B21
2,0.239 nM,B22
3,0.369 nM,B10
4,0.311 nM,B11
5,0.31 nM,B12
6,0.339 nM,B13
7,0.549 nM,B14
8,0.308 nM,B15
9,0.34 nM,B16
10,0.919 nM,B17
11,0.43 nM,B18
12,0.348 nM,B19
13,0.349 nM,B20

# Target: T2, human CCL17
# Test: cell-based or functional assay
row,"IC50 (nM), calcium flux assay in CCRF-CEM cells, 10 ng/ml human CCL17",Binder
1,0.593 nM,B21
2,0.553 nM,B22
3,0.421 nM,B10
4,0.231 nM,B12
5,0.456 nM,B13
6,0.882 nM,B14
7,0.405 nM,B15
8,0.483 nM,B16
9,0.558 nM,B17
10,0.427 nM,B18
11,0.387 nM,B19
12,0.385 nM,B20

# Target: T1, cyno CCL17
# Test: solution equilibrium affinity (MSD-SEA), TBST, 48 h at 4 °C
# Procedure: as §1
row,Kd,Binder
1,0.23 nM,B10
2,0.565 nM,B11
3,0.677 nM,B12
4,0.583 nM,B13
5,3.07 nM,B14
6,4.6 nM,B15
7,0.384 nM,B16
8,9.5 nM,B17
9,0.63 nM,B18
10,1.46 nM,B19
11,0.297 nM,B20

# Target: T2, human CCL17
# Test: as above
# Procedure: as §1
row,Kd,Binder
1,1 nM,B23
2,0.002 nM,B10
3,0.033 nM,B11
4,0.028 nM,B12
5,0.05 nM,B13
6,0.657 nM,B14
7,0.083 nM,B15
8,0.167 nM,B16
9,0.072 nM,B17
10,0.092 nM,B18
11,0.115 nM,B19
12,0.039 nM,B20

# Target: T1, cyno CCL17
# Test: cell-based or functional assay
# Remark: another data set of the same source
row,"IC50 (nM), β-arrestin assay, Hek293 cells co-expressing CCR4, 20 nM CCL17",Binder
1,13.4 nM,B21
2,10.3 nM,B22
3,5.39 nM,B10
4,9.5 nM,B20

# Target: T2, human CCL17
# Test: cell-based or functional assay
# Remark: another data set of the same source
row,"IC50 (nM), β-arrestin assay, Hek293 cells co-expressing CCR4, 20 nM CCL17",Binder
1,13.9 nM,B21
2,10.7 nM,B22
3,8.42 nM,B10
4,6.98 nM,B20
